# Data from patent US20240116985A1 (published 2024).
# Starred links: 1 amine or outer side, 2 acyl side, 3 side chain; linkers in the order of their positions; H or OH if unused. Positions of bridges follow the written chain, without caps; N, C: chain ends. Non-standard residues stand in square brackets, D forms with d. Primed or numbered codes have the meaning given here. *: point of attachment. PyrS2(3) = (S)-3-amino-1-((pent-4-en-1-yloxy)carbonyl)pyrrolidine-3-carboxylic acid, stapling residue, C=CCCCOC(=O)N1CC[C@@](N[*:1])(C(=O)[*:2])C1; PyrS2″ = (S)-3-amino-1-((pent-4-en-1-yloxy)carbonyl)pyrrolidine-3-carboxylic acid (stapling residue), C=CCCCOC(=O)N1CC[C@@](N[*:1])(C(=O)[*:2])C1; B5(16) = 2-amino-2-(pent-4-en-1-yl)hept-6-enoic acid = 2,2-bis(4-pentenyl)glycine (stitching residue), C=CCCCC(CCCC=C)(N[*:1])C(=O)[*:2]; B5(4) = 2,2-bis(4-pentenyl)glycine = 2-amino-2-(pent-4-en-1-yl)hept-6-enoic acid (stitching residue), C=CCCCC(CCCC=C)(N[*:1])C(=O)[*:2]; B5(5) = 2,2-bis(4-pentenyl)glycine, 2-amino-2-(pent-4-en-1-yl)hept-6-enoic acid (stitching residue), C=CCCCC(CCCC=C)(N[*:1])C(=O)[*:2]; TfeGA = (S)-2-amino-3-((carboxymethyl)(2,2,2-trifluoroethyl)amino)propanoic acid, O=C([C@H](CN(CC(=O)[*:3])CC(F)(F)F)N[*:1])[*:2]; PyrS2(5) = (S)-3-amino-1-((alkenyloxy)carbonyl)pyrrolidine-3-carboxylic acid, carbamate stapling residue; B5(3) = 2,2-bis(4-pentenyl)glycine (stitching residue), C=CCCCC(CCCC=C)(N[*:1])C(=O)[*:2]; B5″ = 2,2-bis(4-pentenyl)glycine, stitching residue, C=CCCCC(CCCC=C)(N[*:1])C(=O)[*:2]; Phe(3-COOH) = N[C@@H](Cc1cccc(C(=O)O)c1)C(=O)O; Phe(2-CF3) = N[C@@H](Cc1ccccc1C(F)(F)F)C(=O)O; Phe(2-Cl) = N[C@@H](Cc1ccccc1Cl)C(=O)O; Bta = N[C@@H](Cc1csc2ccccc12)C(=O)O; αAllylPro = C=CC[C@@]1(C(=O)O)CCCN1; tBuAla = CC(C)(C)C[C@H](N)C(=O)O; 3Thi = N[C@@H](Cc1ccsc1)C(=O)O; S8 = C=CCCCCCC[C@](C)(N)C(=O)O; PyrS2(4) = not defined here; Leu(ol) = CC(C)C[C@H](N)CO; hSer = N[C@@H](CCO)C(=O)O; Nle = CCCC[C@H](N)C(=O)O; Alaol = C[C@@H](CO)N*; Aib = CC(C)(N)C(=O)O
# B1: I-1918 (peptide)
# peptide: Ac-[αAllylPro]D[tBuAla][B5(4)]D[Phe(3-COOH)]QAFL[PyrS2(4)][3Thi][Bta]A-NH2
# modifications: staple 1-4, 4-11; not fully specified; printed as Ac-PL3-Asp-Npg-B5-Asp-3COOHF-Gln-Ala-Phe-Leu-PyrS2-3Thi-BztA-Ala-NH2; reading uncertain
# B2: I-1920 (peptide)
# peptide: Ac-[αAllylPro]D[tBuAla][B5(4)]D[Phe(3-COOH)][Aib]AFL[PyrS2(4)][3Thi][Bta]A-NH2
# modifications: staple 1-4, 4-11; not fully specified; printed as Ac-PL3-Asp-Npg-B5-Asp-3COOHF-Aib-Ala-Phe-Leu-PyrS2-3Thi-BztA-Ala-NH2; reading uncertain
# B3: I-1684 (peptide)
# peptide: Ac-[αAllylPro]D[tBuAla][B5(16)]D[Phe(3-COOH)]GAFL[PyrS2(4)][Phe(2-Cl)][Bta]Q-NH2
# modifications: staple 1-4, 4-11; not fully specified; printed as Ac-PL3-Asp-Npg-B5-Asp-3COOHF-Gly-Ala-Phe-Leu-PyrS2-2C1F-BztA-Gln-NH2; reading uncertain
# How the values were obtained:
# Test in all cases: cell-based or functional assay
# [1] = biological target: T1, beta-catenin in DLD1 TCF/LEF luciferase reporter cells (UniProt P35222 1-781)
# T1 sequence (looked up): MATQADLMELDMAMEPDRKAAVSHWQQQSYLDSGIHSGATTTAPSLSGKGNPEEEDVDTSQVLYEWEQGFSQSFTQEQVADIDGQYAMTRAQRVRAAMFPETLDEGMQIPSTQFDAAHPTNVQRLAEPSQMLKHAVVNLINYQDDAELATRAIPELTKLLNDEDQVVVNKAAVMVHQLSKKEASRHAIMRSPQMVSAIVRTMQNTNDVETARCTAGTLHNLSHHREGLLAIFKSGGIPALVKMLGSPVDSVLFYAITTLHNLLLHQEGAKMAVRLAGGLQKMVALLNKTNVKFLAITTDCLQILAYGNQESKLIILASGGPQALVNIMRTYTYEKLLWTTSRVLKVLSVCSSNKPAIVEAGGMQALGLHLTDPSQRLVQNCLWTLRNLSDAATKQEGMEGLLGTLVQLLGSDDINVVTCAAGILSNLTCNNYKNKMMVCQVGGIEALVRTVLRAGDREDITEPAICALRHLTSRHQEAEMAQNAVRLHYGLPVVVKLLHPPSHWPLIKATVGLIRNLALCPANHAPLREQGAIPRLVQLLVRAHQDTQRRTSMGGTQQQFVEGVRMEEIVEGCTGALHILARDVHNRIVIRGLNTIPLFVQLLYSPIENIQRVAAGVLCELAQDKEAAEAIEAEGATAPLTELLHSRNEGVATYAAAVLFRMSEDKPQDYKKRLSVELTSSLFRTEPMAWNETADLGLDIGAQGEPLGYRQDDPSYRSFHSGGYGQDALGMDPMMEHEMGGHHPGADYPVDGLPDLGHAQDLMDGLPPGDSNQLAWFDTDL
# B-cat-Halo [2] = biological target: T2, B-cat-Halo (UniProt P35222 1-781)
# T2 sequence (looked up): T1 sequence (looked up)
# [3] = biological target: T3, beta-catenin in DLD1 TCF/LEF luciferase reporter cells (UniProt P35222 1-781); remark: listed apart in the source
# T3 sequence (looked up): T1 sequence (looked up)
# [4] = biological target: T4, B-cat-Halo (beta-catenin HaloTag construct transfected into HEK293 cells) (UniProt P35222 1-781)
# T4 sequence (looked up): T1 sequence (looked up)
# [5] = biological target: T5, beta-catenin in DLD1 TCF/LEF luciferase reporter cells (UniProt P35222 1-781); remark: listed apart in the source
# T5 sequence (looked up): T1 sequence (looked up)
# B-cat-Halo [6] = biological target: T6, B-cat-Halo (UniProt P35222 1-781); remark: listed apart in the source
# T6 sequence (looked up): T1 sequence (looked up)
# B-cat-Halo [7] = biological target: T7, B-cat-Halo (UniProt P35222 1-781); remark: listed apart in the source
# T7 sequence (looked up): T1 sequence (looked up)
# [8] = biological target: T8, beta-catenin in DLD1 TCF/LEF luciferase reporter cells (UniProt P35222 1-781); remark: listed apart in the source
# T8 sequence (looked up): T1 sequence (looked up)
# [9] = biological target: T9, beta-catenin in DLD1 TCF/LEF luciferase reporter cells (UniProt P35222 2-781)
# T9 sequence (looked up): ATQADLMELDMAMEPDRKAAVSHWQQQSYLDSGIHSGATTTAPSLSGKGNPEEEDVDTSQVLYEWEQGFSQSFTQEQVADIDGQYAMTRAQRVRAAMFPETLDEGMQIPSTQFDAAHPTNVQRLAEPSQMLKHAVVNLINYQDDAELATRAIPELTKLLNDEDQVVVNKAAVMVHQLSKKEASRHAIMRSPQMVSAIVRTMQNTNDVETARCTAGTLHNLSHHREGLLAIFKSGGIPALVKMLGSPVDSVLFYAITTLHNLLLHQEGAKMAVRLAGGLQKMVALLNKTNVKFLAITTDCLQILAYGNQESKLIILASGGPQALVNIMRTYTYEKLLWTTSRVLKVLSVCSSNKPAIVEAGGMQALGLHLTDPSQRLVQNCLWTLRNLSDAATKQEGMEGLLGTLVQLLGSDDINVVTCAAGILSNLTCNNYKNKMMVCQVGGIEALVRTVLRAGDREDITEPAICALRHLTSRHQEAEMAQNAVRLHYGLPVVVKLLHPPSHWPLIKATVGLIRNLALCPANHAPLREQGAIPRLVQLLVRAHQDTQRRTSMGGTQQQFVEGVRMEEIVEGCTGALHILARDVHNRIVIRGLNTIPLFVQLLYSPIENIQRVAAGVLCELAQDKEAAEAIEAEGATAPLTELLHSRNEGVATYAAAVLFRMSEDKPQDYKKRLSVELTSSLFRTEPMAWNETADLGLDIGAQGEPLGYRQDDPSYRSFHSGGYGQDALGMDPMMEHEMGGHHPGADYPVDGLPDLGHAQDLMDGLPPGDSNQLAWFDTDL
# [10] = biological target: T10, B-cat-Halo (beta-catenin HaloTag NanoBRET construct expressed in HEK293 cells) (UniProt P35222 2-781)
# T10 sequence (looked up): T9 sequence (looked up)
binder,measurement,setting,value
"Ac-[αAllylPro]D[tBuAla][B5(4)]DDAAFF[PyrS2″][Phe(2-CF3)][Bta]Q-NH2 (staple 1-4, 4-11) [I-1319]",DLD1 4% Abs IC50,[1],2.1 µM
same,NanoBRET Abs IC50,B-cat-Halo [2],4.2 µM
B1,DLD1 4% Abs IC50,[3],6.5 µM
same,NanoBRET Abs IC50,[4],4 µM
B2,DLD1 4% Abs IC50,[3],1.2 µM
same,NanoBRET Abs IC50,[4],3.1 µM
B3,DLD1 4% Abs IC50,[5],3.4 µM
"Ac-[αAllylPro]D[tBuAla][B5(5)]DDAAFN[PyrS2″][3Thi][Bta]Q-NH2 (staple 1-4, 4-11) [I-686]",NanoBRET IC50,B-cat-Halo [6],7.5 µM
"Ac-[αAllylPro]D[tBuAla][B5(3)]D[TfeGA]AAF[hSer][PyrS2″][Phe(2-Cl)][Bta][hSer]-NH2 (staple 1-4, 4-11) [I-993]",NanoBRET Abs IC50,B-cat-Halo [7],4.9 µM
same,DLD1 4% Abs IC50,[8],1.8 µM
"Ac-[αAllylPro]D[tBuAla][B5(4)]DDAAFL[PyrS2″][Phe(2-CF3)][Bta]Q-NH2 (staple 1-4, 4-11) [I-1318]",DLD1 4% Abs IC50,[1],3.9 µM
same,NanoBRET Abs IC50,B-cat-Halo [2],4.8 µM
"Ac-[αAllylPro]D[tBuAla][B5(4)]DDAAFN[PyrS2″][Phe(2-Cl)][Bta][Leu(ol)] (staple 1-4, 4-11) [I-1080]",DLD1 4% Abs IC50,[9],10.4 µM
same,NanoBRET Abs IC50,[10],> 20 µM
"Ac-[αAllylPro]D[tBuAla][B5(3)]DDAAFN[PyrS2″][Phe(2-Cl)][Bta]-Alaol (staple 1-4, 4-11) [I-1081]",DLD1 4% Abs IC50,[9],10.6 µM
same,NanoBRET Abs IC50,[10],16.7 µM
"Ac-[αAllylPro]D[tBuAla][B5(16)]D[Phe(3-COOH)][Nle]AFL[PyrS2(5)][Phe(2-Cl)][Bta]Q-NH2 (staple 1-4, 4-11) [I-1685]",DLD1 4% Abs IC50,[5],1.3 µM
"Ac-[αAllylPro]D[tBuAla][B5(3)]D[TfeGA]AAF[hSer][S8][Phe(2-Cl)][Bta]Q-NH2 (staple 1-4, 4-11) [I-996]",NanoBRET Abs IC50,B-cat-Halo [7],11.3 µM
same,DLD1 4% Abs IC50,[8],3.6 µM
"Ac-[αAllylPro]D[tBuAla][B5″]D[TfeGA]AAFN[PyrS2(3)][3Thi][Bta]Q-NH2 (staple 1-4, 4-11) [I-761]",NanoBRET IC50,B-cat-Halo [6],5 µM
